From the MegaScale stability set (Tsuboyama et al. 2023)

B1: HEEH_KT_rd6_3632 (parent)
chain: DAEELIELVERALKEGREIILLGVRITSEEAGKWFIEWIRRFL

Variants of: B1
Test: folding stability dG (cDNA display proteolysis); higher = more stable
Settings: PBS, room temperature

| Variant | folding stability dG [kcal/mol] |
| --- | --- |
| DAEELIEIVERALKEGREIILLGVRITSEEAGKWFIEWIRRFL | 3.61 |
| DAEELIEMVERALKEGREIILLGVRITSEEAGKWFIEWIRRFL | 3.69 |
| DAEELIEHVERALKEGREIILLGVRITSEEAGKWFIEWIRRFL | 3.26 |
| DAEELIEFVERALKEGREIILLGVRITSEEAGKWFIEWIRRFL | 3.77 |
| DAEELIEGVERALKEGREIILLGVRITSEEAGKWFIEWIRRFL | 3.03 |
| DAEELIENVERALKEGREIILLGVRITSEEAGKWFIEWIRRFL | 2.93 |
| DAEELIEDVERALKEGREIILLGVRITSEEAGKWFIEWIRRFL | 2.92 |
| DAEELIEEVERALKEGREIILLGVRITSEEAGKWFIEWIRRFL | 3.29 |
| DAEELIEKVERALKEGREIILLGVRITSEEAGKWFIEWIRRFL | 3.46 |
| DAEELIEAVERALKEGREIILLGVRITSEEAGKWFIEWIRRFL | 3.47 |
| DAEELIILVERALKEGREIILLGVRITSEEAGKWFIEWIRRFL | 3.79 |
| DAEELILLVERALKEGREIILLGVRITSEEAGKWFIEWIRRFL | 3.91 |
| DAEELIMLVERALKEGREIILLGVRITSEEAGKWFIEWIRRFL | 3.82 |
| DAEELINLVERALKEGREIILLGVRITSEEAGKWFIEWIRRFL | 3.89 |
| DAEELIWLVERALKEGREIILLGVRITSEEAGKWFIEWIRRFL | 3.83 |
| DAEELITLVERALKEGREIILLGVRITSEEAGKWFIEWIRRFL | 3.82 |
| DAEELIKLVERALKEGREIILLGVRITSEEAGKWFIEWIRRFL | 4.05 |
| DAEELIVLVERALKEGREIILLGVRITSEEAGKWFIEWIRRFL | 3.74 |
| DAEELIGLVERALKEGREIILLGVRITSEEAGKWFIEWIRRFL | 3.89 |
| DAEELIFLVERALKEGREIILLGVRITSEEAGKWFIEWIRRFL | 3.74 |
| DAEELISLVERALKEGREIILLGVRITSEEAGKWFIEWIRRFL | 3.88 |
| DAEELIQLVERALKEGREIILLGVRITSEEAGKWFIEWIRRFL | 3.79 |
| DAEELIYLVERALKEGREIILLGVRITSEEAGKWFIEWIRRFL | 3.77 |
| DAEELIRLVERALKEGREIILLGVRITSEEAGKWFIEWIRRFL | 4.18 |

| Variant | folding stability dG [kcal/mol] |
| --- | --- |
| DAEELIPLVERALKEGREIILLGVRITSEEAGKWFIEWIRRFL | 3.1 |
| DAEELICLVERALKEGREIILLGVRITSEEAGKWFIEWIRRFL | 4.46 |
| DAEELIDLVERALKEGREIILLGVRITSEEAGKWFIEWIRRFL | 3.7 |
| DAEELIALVERALKEGREIILLGVRITSEEAGKWFIEWIRRFL | 3.99 |
| DAEELIHLVERALKEGREIILLGVRITSEEAGKWFIEWIRRFL | 3.84 |
| DAEEIIELVERALKEGREIILLGVRITSEEAGKWFIEWIRRFL | 3.44 |
| DAEEGIELVERALKEGREIILLGVRITSEEAGKWFIEWIRRFL | 2.88 |
| DAEEPIELVERALKEGREIILLGVRITSEEAGKWFIEWIRRFL | 2.82 |
| DAEEEIELVERALKEGREIILLGVRITSEEAGKWFIEWIRRFL | 2.77 |
| DAEETIELVERALKEGREIILLGVRITSEEAGKWFIEWIRRFL | 3.08 |
| DAEEMIELVERALKEGREIILLGVRITSEEAGKWFIEWIRRFL | 3.56 |
| DAEERIELVERALKEGREIILLGVRITSEEAGKWFIEWIRRFL | 2.79 |
| DAEEVIELVERALKEGREIILLGVRITSEEAGKWFIEWIRRFL | 3.23 |
| DAEEHIELVERALKEGREIILLGVRITSEEAGKWFIEWIRRFL | 2.83 |
| DAEESIELVERALKEGREIILLGVRITSEEAGKWFIEWIRRFL | 2.85 |
| DAEECIELVERALKEGREIILLGVRITSEEAGKWFIEWIRRFL | 3.74 |
| DAEEDIELVERALKEGREIILLGVRITSEEAGKWFIEWIRRFL | 3.02 |
| DAEEAIELVERALKEGREIILLGVRITSEEAGKWFIEWIRRFL | 2.97 |
| DAEEWIELVERALKEGREIILLGVRITSEEAGKWFIEWIRRFL | 3.67 |
| DAEEQIELVERALKEGREIILLGVRITSEEAGKWFIEWIRRFL | 2.83 |
| DAEEFIELVERALKEGREIILLGVRITSEEAGKWFIEWIRRFL | 3.6 |
| DAEEKIELVERALKEGREIILLGVRITSEEAGKWFIEWIRRFL | 2.83 |
| DAEENIELVERALKEGREIILLGVRITSEEAGKWFIEWIRRFL | 2.72 |
| DAEEYIELVERALKEGREIILLGVRITSEEAGKWFIEWIRRFL | 3.47 |

| Variant | folding stability dG [kcal/mol] |
| --- | --- |
| DAEELDELVERALKEGREIILLGVRITSEEAGKWFIEWIRRFL | 3.2 |
| DAEELNELVERALKEGREIILLGVRITSEEAGKWFIEWIRRFL | 3.11 |
| DAEELQELVERALKEGREIILLGVRITSEEAGKWFIEWIRRFL | 3.16 |
| DAEELVELVERALKEGREIILLGVRITSEEAGKWFIEWIRRFL | 3.48 |
| DAEELEELVERALKEGREIILLGVRITSEEAGKWFIEWIRRFL | 3.18 |
| DAEELKELVERALKEGREIILLGVRITSEEAGKWFIEWIRRFL | 3.24 |
| DAEELWELVERALKEGREIILLGVRITSEEAGKWFIEWIRRFL | 3.99 |
| DAEELHELVERALKEGREIILLGVRITSEEAGKWFIEWIRRFL | 3.29 |
| DAEELAELVERALKEGREIILLGVRITSEEAGKWFIEWIRRFL | 3.38 |
| DAEELCELVERALKEGREIILLGVRITSEEAGKWFIEWIRRFL | 3.95 |
| DAEELRELVERALKEGREIILLGVRITSEEAGKWFIEWIRRFL | 3.38 |
| DAEELYELVERALKEGREIILLGVRITSEEAGKWFIEWIRRFL | 3.38 |
| DAEELPELVERALKEGREIILLGVRITSEEAGKWFIEWIRRFL | 3.08 |
| DAEELGELVERALKEGREIILLGVRITSEEAGKWFIEWIRRFL | 3.18 |
| DAEELLELVERALKEGREIILLGVRITSEEAGKWFIEWIRRFL | 3.62 |
| DAEELFELVERALKEGREIILLGVRITSEEAGKWFIEWIRRFL | 3.48 |
| DAEELSELVERALKEGREIILLGVRITSEEAGKWFIEWIRRFL | 3.18 |
| DAEELTELVERALKEGREIILLGVRITSEEAGKWFIEWIRRFL | 3.25 |
| DAEELMELVERALKEGREIILLGVRITSEEAGKWFIEWIRRFL | 3.3 |
| DREELIELVERALKEGREIILLGVRITSEEAGKWFIEWIRRFL | 3.54 |
| DSEELIELVERALKEGREIILLGVRITSEEAGKWFIEWIRRFL | 3.42 |
| DHEELIELVERALKEGREIILLGVRITSEEAGKWFIEWIRRFL | 3.66 |
| DKEELIELVERALKEGREIILLGVRITSEEAGKWFIEWIRRFL | 3.5 |
| DIEELIELVERALKEGREIILLGVRITSEEAGKWFIEWIRRFL | 4.2 |

| Variant | folding stability dG [kcal/mol] |
| --- | --- |
| DWEELIELVERALKEGREIILLGVRITSEEAGKWFIEWIRRFL | 4.53 |
| DVEELIELVERALKEGREIILLGVRITSEEAGKWFIEWIRRFL | 4.05 |
| DNEELIELVERALKEGREIILLGVRITSEEAGKWFIEWIRRFL | 3.4 |
| DQEELIELVERALKEGREIILLGVRITSEEAGKWFIEWIRRFL | 3.55 |
| DMEELIELVERALKEGREIILLGVRITSEEAGKWFIEWIRRFL | 3.92 |
| DTEELIELVERALKEGREIILLGVRITSEEAGKWFIEWIRRFL | 3.62 |
| DYEELIELVERALKEGREIILLGVRITSEEAGKWFIEWIRRFL | 4.2 |
| DLEELIELVERALKEGREIILLGVRITSEEAGKWFIEWIRRFL | 4.31 |
| DPEELIELVERALKEGREIILLGVRITSEEAGKWFIEWIRRFL | 3.65 |
| DAELLIELVERALKEGREIILLGVRITSEEAGKWFIEWIRRFL | 4.1 |
| DAEALIELVERALKEGREIILLGVRITSEEAGKWFIEWIRRFL | 3.96 |
| DAEYLIELVERALKEGREIILLGVRITSEEAGKWFIEWIRRFL | 4.24 |
| DAEMLIELVERALKEGREIILLGVRITSEEAGKWFIEWIRRFL | 4.01 |
| DAEGLIELVERALKEGREIILLGVRITSEEAGKWFIEWIRRFL | 3.92 |
| DAESLIELVERALKEGREIILLGVRITSEEAGKWFIEWIRRFL | 3.89 |
| DAEPLIELVERALKEGREIILLGVRITSEEAGKWFIEWIRRFL | 3.64 |
| DAERLIELVERALKEGREIILLGVRITSEEAGKWFIEWIRRFL | 4.21 |
| DAEDLIELVERALKEGREIILLGVRITSEEAGKWFIEWIRRFL | 3.65 |
| DAEHLIELVERALKEGREIILLGVRITSEEAGKWFIEWIRRFL | 4.09 |
| DAECLIELVERALKEGREIILLGVRITSEEAGKWFIEWIRRFL | 4.61 |
| DAEILIELVERALKEGREIILLGVRITSEEAGKWFIEWIRRFL | 4.06 |
| DAEVLIELVERALKEGREIILLGVRITSEEAGKWFIEWIRRFL | 3.91 |
| DAETLIELVERALKEGREIILLGVRITSEEAGKWFIEWIRRFL | 4.03 |
| DAEWLIELVERALKEGREIILLGVRITSEEAGKWFIEWIRRFL | 4.19 |

| Variant | folding stability dG [kcal/mol] |
| --- | --- |
| DAEFLIELVERALKEGREIILLGVRITSEEAGKWFIEWIRRFL | 4.15 |
| DAENLIELVERALKEGREIILLGVRITSEEAGKWFIEWIRRFL | 3.78 |
| DAEKLIELVERALKEGREIILLGVRITSEEAGKWFIEWIRRFL | 4.18 |
| DAEQLIELVERALKEGREIILLGVRITSEEAGKWFIEWIRRFL | 3.95 |
| DASELIELVERALKEGREIILLGVRITSEEAGKWFIEWIRRFL | 3.74 |
| DAFELIELVERALKEGREIILLGVRITSEEAGKWFIEWIRRFL | 4.06 |
| DAPELIELVERALKEGREIILLGVRITSEEAGKWFIEWIRRFL | 3.46 |
| DALELIELVERALKEGREIILLGVRITSEEAGKWFIEWIRRFL | 3.97 |
| DAGELIELVERALKEGREIILLGVRITSEEAGKWFIEWIRRFL | 3.69 |
| DAVELIELVERALKEGREIILLGVRITSEEAGKWFIEWIRRFL | 3.78 |
| DAWELIELVERALKEGREIILLGVRITSEEAGKWFIEWIRRFL | 4.15 |
| DAHELIELVERALKEGREIILLGVRITSEEAGKWFIEWIRRFL | 4.02 |
| DAKELIELVERALKEGREIILLGVRITSEEAGKWFIEWIRRFL | 3.8 |
| DADELIELVERALKEGREIILLGVRITSEEAGKWFIEWIRRFL | 3.85 |
| DATELIELVERALKEGREIILLGVRITSEEAGKWFIEWIRRFL | 3.83 |
| DAIELIELVERALKEGREIILLGVRITSEEAGKWFIEWIRRFL | 3.85 |
| DAYELIELVERALKEGREIILLGVRITSEEAGKWFIEWIRRFL | 4.02 |
| DAQELIELVERALKEGREIILLGVRITSEEAGKWFIEWIRRFL | 3.94 |
| DAMELIELVERALKEGREIILLGVRITSEEAGKWFIEWIRRFL | 3.73 |
| DARELIELVERALKEGREIILLGVRITSEEAGKWFIEWIRRFL | 4.16 |
| DAAELIELVERALKEGREIILLGVRITSEEAGKWFIEWIRRFL | 3.87 |
| DANELIELVERALKEGREIILLGVRITSEEAGKWFIEWIRRFL | 3.87 |
